T1: TNFR1 (Homo sapiens, UniProt P19438)
T1 chain: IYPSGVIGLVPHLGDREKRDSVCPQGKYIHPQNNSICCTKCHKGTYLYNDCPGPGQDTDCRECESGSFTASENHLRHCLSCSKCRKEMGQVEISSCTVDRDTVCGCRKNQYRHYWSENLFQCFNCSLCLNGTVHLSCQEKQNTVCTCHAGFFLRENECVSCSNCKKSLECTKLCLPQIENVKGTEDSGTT

B1: S59L (designed binder)
chain: SMEEEVEKAAKEYEKKKKEAIEKHLEKLKAKDKEAAERFLKELEEAAKEYAKDEAKTMLEEEAKRRAKKYKEKVLLSELSEEEQKEIKEAEEKLVRTILKYVEEAAK
B2: A51F (designed binder)
chain: SMEEEVEKAAKEYEKKKKEAIEKHLEKLKAKDKEAAERFLKELEEAAKEYFKDEAKTMSEEEAKRRAKKYKEKVLLSELSEEEQKEIKEAEEKLVRTILKYVEEAAK
B3: M2C (designed binder)
chain: SCEEEVEKAAKEYEKKKKEAIEKHLEKLKAKDKEAAERFLKELEEAAKEYAKDEAKTMSEEEAKRRAKKYKEKVLLSELSEEEQKEIKEAEEKLVRTILKYVEEAAK
B4: A35F (designed binder)
chain: SMEEEVEKAAKEYEKKKKEAIEKHLEKLKAKDKEFAERFLKELEEAAKEYAKDEAKTMSEEEAKRRAKKYKEKVLLSELSEEEQKEIKEAEEKLVRTILKYVEEAAK
B5: V95R (designed binder)
chain: SMEEEVEKAAKEYEKKKKEAIEKHLEKLKAKDKEAAERFLKELEEAAKEYAKDEAKTMSEEEAKRRAKKYKEKVLLSELSEEEQKEIKEAEEKLRRTILKYVEEAAK
B6: R65S (designed binder)
chain: SMEEEVEKAAKEYEKKKKEAIEKHLEKLKAKDKEAAERFLKELEEAAKEYAKDEAKTMSEEEAKSRAKKYKEKVLLSELSEEEQKEIKEAEEKLVRTILKYVEEAAK
B7: M58R (designed binder)
chain: SMEEEVEKAAKEYEKKKKEAIEKHLEKLKAKDKEAAERFLKELEEAAKEYAKDEAKTRSEEEAKRRAKKYKEKVLLSELSEEEQKEIKEAEEKLVRTILKYVEEAAK
B8: E82C (designed binder)
chain: SMEEEVEKAAKEYEKKKKEAIEKHLEKLKAKDKEAAERFLKELEEAAKEYAKDEAKTMSEEEAKRRAKKYKEKVLLSELSECEQKEIKEAEEKLVRTILKYVEEAAK
B9: E103R (designed binder)
chain: SMEEEVEKAAKEYEKKKKEAIEKHLEKLKAKDKEAAERFLKELEEAAKEYAKDEAKTMSEEEAKRRAKKYKEKVLLSELSEEEQKEIKEAEEKLVRTILKYVREAAK
B10: E42D (designed binder)
chain: SMEEEVEKAAKEYEKKKKEAIEKHLEKLKAKDKEAAERFLKDLEEAAKEYAKDEAKTMSEEEAKRRAKKYKEKVLLSELSEEEQKEIKEAEEKLVRTILKYVEEAAK
B11: E45F (designed binder)
chain: SMEEEVEKAAKEYEKKKKEAIEKHLEKLKAKDKEAAERFLKELEFAAKEYAKDEAKTMSEEEAKRRAKKYKEKVLLSELSEEEQKEIKEAEEKLVRTILKYVEEAAK
B12: Y13W (designed binder)
chain: SMEEEVEKAAKEWEKKKKEAIEKHLEKLKAKDKEAAERFLKELEEAAKEYAKDEAKTMSEEEAKRRAKKYKEKVLLSELSEEEQKEIKEAEEKLVRTILKYVEEAAK
B13: E86S (designed binder)
chain: SMEEEVEKAAKEYEKKKKEAIEKHLEKLKAKDKEAAERFLKELEEAAKEYAKDEAKTMSEEEAKRRAKKYKEKVLLSELSEEEQKSIKEAEEKLVRTILKYVEEAAK
B14: M58Q (designed binder)
chain: SMEEEVEKAAKEYEKKKKEAIEKHLEKLKAKDKEAAERFLKELEEAAKEYAKDEAKTQSEEEAKRRAKKYKEKVLLSELSEEEQKEIKEAEEKLVRTILKYVEEAAK
B15: R96S (designed binder)
chain: SMEEEVEKAAKEYEKKKKEAIEKHLEKLKAKDKEAAERFLKELEEAAKEYAKDEAKTMSEEEAKRRAKKYKEKVLLSELSEEEQKEIKEAEEKLVSTILKYVEEAAK
B16: E49C (designed binder)
chain: SMEEEVEKAAKEYEKKKKEAIEKHLEKLKAKDKEAAERFLKELEEAAKCYAKDEAKTMSEEEAKRRAKKYKEKVLLSELSEEEQKEIKEAEEKLVRTILKYVEEAAK
B17: A67N (designed binder)
chain: SMEEEVEKAAKEYEKKKKEAIEKHLEKLKAKDKEAAERFLKELEEAAKEYAKDEAKTMSEEEAKRRNKKYKEKVLLSELSEEEQKEIKEAEEKLVRTILKYVEEAAK
B18: K52S (designed binder)
chain: SMEEEVEKAAKEYEKKKKEAIEKHLEKLKAKDKEAAERFLKELEEAAKEYASDEAKTMSEEEAKRRAKKYKEKVLLSELSEEEQKEIKEAEEKLVRTILKYVEEAAK
B19: E45P (designed binder)
chain: SMEEEVEKAAKEYEKKKKEAIEKHLEKLKAKDKEAAERFLKELEPAAKEYAKDEAKTMSEEEAKRRAKKYKEKVLLSELSEEEQKEIKEAEEKLVRTILKYVEEAAK
B20: E81Y (designed binder)
chain: SMEEEVEKAAKEYEKKKKEAIEKHLEKLKAKDKEAAERFLKELEEAAKEYAKDEAKTMSEEEAKRRAKKYKEKVLLSELSYEEQKEIKEAEEKLVRTILKYVEEAAK
B21: L28A (designed binder)
chain: SMEEEVEKAAKEYEKKKKEAIEKHLEKAKAKDKEAAERFLKELEEAAKEYAKDEAKTMSEEEAKRRAKKYKEKVLLSELSEEEQKEIKEAEEKLVRTILKYVEEAAK
B22: A9N (designed binder)
chain: SMEEEVEKNAKEYEKKKKEAIEKHLEKLKAKDKEAAERFLKELEEAAKEYAKDEAKTMSEEEAKRRAKKYKEKVLLSELSEEEQKEIKEAEEKLVRTILKYVEEAAK
B23: A9W (designed binder)
chain: SMEEEVEKWAKEYEKKKKEAIEKHLEKLKAKDKEAAERFLKELEEAAKEYAKDEAKTMSEEEAKRRAKKYKEKVLLSELSEEEQKEIKEAEEKLVRTILKYVEEAAK
B24: A90G (designed binder)
chain: SMEEEVEKAAKEYEKKKKEAIEKHLEKLKAKDKEAAERFLKELEEAAKEYAKDEAKTMSEEEAKRRAKKYKEKVLLSELSEEEQKEIKEGEEKLVRTILKYVEEAAK
B25: K71P (designed binder)
chain: SMEEEVEKAAKEYEKKKKEAIEKHLEKLKAKDKEAAERFLKELEEAAKEYAKDEAKTMSEEEAKRRAKKYPEKVLLSELSEEEQKEIKEAEEKLVRTILKYVEEAAK
B26: K18F (designed binder)
chain: SMEEEVEKAAKEYEKKKFEAIEKHLEKLKAKDKEAAERFLKELEEAAKEYAKDEAKTMSEEEAKRRAKKYKEKVLLSELSEEEQKEIKEAEEKLVRTILKYVEEAAK
B27: K73M (designed binder)
chain: SMEEEVEKAAKEYEKKKKEAIEKHLEKLKAKDKEAAERFLKELEEAAKEYAKDEAKTMSEEEAKRRAKKYKEMVLLSELSEEEQKEIKEAEEKLVRTILKYVEEAAK
B28: T57L (designed binder)
chain: SMEEEVEKAAKEYEKKKKEAIEKHLEKLKAKDKEAAERFLKELEEAAKEYAKDEAKLMSEEEAKRRAKKYKEKVLLSELSEEEQKEIKEAEEKLVRTILKYVEEAAK
B29: A105F (designed binder)
chain: SMEEEVEKAAKEYEKKKKEAIEKHLEKLKAKDKEAAERFLKELEEAAKEYAKDEAKTMSEEEAKRRAKKYKEKVLLSELSEEEQKEIKEAEEKLVRTILKYVEEFAK
B30: E62A (designed binder)
chain: SMEEEVEKAAKEYEKKKKEAIEKHLEKLKAKDKEAAERFLKELEEAAKEYAKDEAKTMSEEAAKRRAKKYKEKVLLSELSEEEQKEIKEAEEKLVRTILKYVEEAAK
B31: K23H (designed binder)
chain: SMEEEVEKAAKEYEKKKKEAIEHHLEKLKAKDKEAAERFLKELEEAAKEYAKDEAKTMSEEEAKRRAKKYKEKVLLSELSEEEQKEIKEAEEKLVRTILKYVEEAAK
B32: E44Q (designed binder)
chain: SMEEEVEKAAKEYEKKKKEAIEKHLEKLKAKDKEAAERFLKELQEAAKEYAKDEAKTMSEEEAKRRAKKYKEKVLLSELSEEEQKEIKEAEEKLVRTILKYVEEAAK
B33: S80Y (designed binder)
chain: SMEEEVEKAAKEYEKKKKEAIEKHLEKLKAKDKEAAERFLKELEEAAKEYAKDEAKTMSEEEAKRRAKKYKEKVLLSELYEEEQKEIKEAEEKLVRTILKYVEEAAK
B34: L94S (designed binder)
chain: SMEEEVEKAAKEYEKKKKEAIEKHLEKLKAKDKEAAERFLKELEEAAKEYAKDEAKTMSEEEAKRRAKKYKEKVLLSELSEEEQKEIKEAEEKSVRTILKYVEEAAK
B35: L94T (designed binder)
chain: SMEEEVEKAAKEYEKKKKEAIEKHLEKLKAKDKEAAERFLKELEEAAKEYAKDEAKTMSEEEAKRRAKKYKEKVLLSELSEEEQKEIKEAEEKTVRTILKYVEEAAK

Target: T1, TNFR1
Test: yeast display SC50

Binder	apparent Kd (screen)
B1	1.05 nM
B2	0.593 nM
B3	2.73 nM
B4	0.956 nM
B5	7.78 nM
B6	1.69 nM
B7	12.5 nM
B8	1.86 nM
B9	0.539 nM
B10	2.73 nM
B11	4.39 nM
B12	2.73 nM
B13	0.718 nM
B14	11.4 nM
B15	2.48 nM
B16	13.8 nM
B17	7.07 nM
B18	0.446 nM

Binder	apparent Kd (screen)
B19	7.78 nM
B20	0.653 nM
B21	0.718 nM
B22	0.869 nM
B23	3 nM
B24	0.49 nM
B25	11.4 nM
B26	0.869 nM
B27	0.869 nM
B28	0.107 nM
B29	3 nM
B30	0.446 nM
B31	0.49 nM
B32	0.653 nM
B33	2.05 nM
B34	12.5 nM
B35	0.446 nM

From paper PMC12416549 (2024)
